Source: patent US20030200555A1

Target: 2081/anti-NF IgG
Assay: ECL (ORIGEN Analyzer), competition with biotinylated-SEVNF

## SEVNL [SEVNL peptide]
  fold less effective in competition than SEVNF: 100 fold
